According to patent US20250281611A1 (BIOSCEPTRE AUST, published 2025):

T1: CD19 (UniProt P15391 20-556, limits assumed)
T1 construct: whole, on cells; also called CD19 on JeKo-1
T1 sequence (looked up): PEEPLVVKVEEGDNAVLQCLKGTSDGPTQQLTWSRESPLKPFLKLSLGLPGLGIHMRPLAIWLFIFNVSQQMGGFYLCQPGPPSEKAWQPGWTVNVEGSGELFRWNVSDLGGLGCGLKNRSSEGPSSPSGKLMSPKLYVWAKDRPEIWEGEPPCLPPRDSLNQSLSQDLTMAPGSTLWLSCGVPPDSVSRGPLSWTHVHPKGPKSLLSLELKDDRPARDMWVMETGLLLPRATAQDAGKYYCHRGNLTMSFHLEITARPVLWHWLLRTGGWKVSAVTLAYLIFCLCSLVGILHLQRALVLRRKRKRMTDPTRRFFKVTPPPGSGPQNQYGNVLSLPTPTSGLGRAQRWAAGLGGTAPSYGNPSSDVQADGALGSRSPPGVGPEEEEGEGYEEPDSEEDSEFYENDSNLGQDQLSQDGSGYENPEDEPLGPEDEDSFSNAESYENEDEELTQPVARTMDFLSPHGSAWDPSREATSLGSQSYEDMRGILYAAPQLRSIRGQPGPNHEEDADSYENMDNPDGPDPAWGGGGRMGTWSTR


What was measured:
nfP2X7 CAR 1 [1] = target: T2, nfP2X7 CAR 1; assay: flow cytometry, anti-His-FITC, MFI on EGFR+ (CAR+) T cells over background 0.44
T2 construct: CAR-positive cells gated by the co-expressed EGFR marker; also called nfP2X7 targeted CAR; nfP2X7 CAR on EGFR+ T cells
Experimental: (§1) nfP2X₇ CAR T cells were incubated with different BRiDGE variants at saturating concentrations. […] The MFI intensity correlates with the number of secondary bound antibodies bound to the BRiDGEs that are only detected if they are bound to the CAR T cells. EGFR was used as a marker gene to detect the CAR expression. Thus, the EGFR+ T cell population was defined as the CAR expressing cells and the EGFR− T cell population was defined as the CAR negative subset. MFI: median fluorescence intensity. EGFR: epidermal growth factor receptor. BLItz: Bio-Layer interferometry (BLI) technology using HIS-tag identification tips. HIS-tag MFI Ratio: relative index that is calculated by the testing condition MFI divided by the control MFI, which corresponds to the MFI measured on EGFR+ T cells (defined as CAR positive cells) divided by the MFI measured on the EGFR− T cells (defined as CAR negative cells). […] The higher the MFIR, the stronger the binding.

CD19 [2] = target: T1, CD19; assay: flow cytometry, JeKo-1 cells, bridge at saturating conc., BIL03s-AF647 detection
Experimental: (§2) JeKo-1 cells were incubated with different CD19 BRiDGE variants at saturating concentrations. […] The MFI intensity correlates with the number of secondary bound antibodies bound to the CD19 BRiDGE variants that are only detected if they are bound to the JeKo-1 cells. MFI: median fluorescence intensity. BLitz: Bio-Layer interferometry (BLI) technology using HIS-tag identification tips. […] The higher the MFIR, the stronger the binding.

CD19 [3] = target: T1, CD19; assay: flow cytometry, JeKo-1 cells, anti-His-FITC detection, MFI over no-bridge control
Experimental: as §2

CD19 [4] = target: T1, CD19; assay: flow cytometry, JeKo-1 cells, bridge at saturating conc., anti-His-FITC detection
Experimental: as §2

nfP2X7 CAR 1 [5] = target: T2, nfP2X7 CAR 1; assay: flow cytometry, anti-His-FITC, MFI on EGFR+ (CAR+) over EGFR- (CAR-) T cells
Experimental: as §1

nfP2X7 CAR 1 [6] = target: T2, nfP2X7 CAR 1; assay: flow cytometry, nfP2X7 CAR 1 T cells (EGFR+ gate), anti-His-FITC detection
Experimental: as §1

CD19 [7] = target: T1, CD19; assay: flow cytometry, JeKo-1 cells, BIL03s-AF647 detection, MFI over no-bridge control
Experimental: as §2

Binder	HisTag MFI Ratio (background 0.44) (nfP2X7 CAR 1 [1])	MFI Bil03 AF647 (CD19 [2])	MFIR HisTag FITC (CD19 [3])	MFI HisTag FITC (CD19 [4])	HisTag MFI Ratio of EGFR+/EGFR- (nfP2X7 CAR 1 [5])	MFI HisTag FITC in EGFR+ Population (nfP2X7 CAR 1 [6])	MFIR BIL03 AF647 (CD19 [7])
CD19 BRIDGE variant B8 (Fab, V domains shown) VH: EVQLVESGGGLVKPGGSLKLSCAASGYTFTSYVMHWVRQAPGKGLEWIGYINPYNDGTKYNEKFQGRVTISSDKSISTAYMELSSLRSEDTAMYYCARGTYYYGTRVFDYWGQGTLVTVSS VL: DIVMTQSPATLSLSPGERATLSCRSSKSLQNVNGNTYLYWFQQKPGQSPQLLIYRMSNLNSGVPDRFSGSGSGTEFTLTISSLEPEDFAVYYCMQHLEYPITFGAGTKLEIKR	5.8	10.6	4.65	3.58	4.4	2.53	23
CD19 BRIDGE variant B14 (Fab, V domains shown) VH: EVQLVESGGGLVKPGGSLKLSCAASGYTFTSYVMHWVRQAPGKGLEWIGYINPYNDGTKYNEKFQGRVTISSDKSISTAYMELSSLRSEDTAMYYCARGTYYYGTRVFDYWGQGTLVTVSS VL: DIVMTQSPATLSLSPGERATLSCRSSKSLQNVNGNTYLYWFQQKPGQSPQLLIYRMSNLNSGVPDRFSGSGSGTEFTLTISSLEPEDFAVYYCMQHLEYPITFGAGTKLEIKR	5.5	7.27	4.05	3.12	4.5	2.41	15.8
CD19 BRIDGE variant B13 (Fab, V domains shown) VH: EVQLVESGGGLVKPGGSLKLSCAASGYTFTSYVMHWVRQAPGKGLEWIGYINPYNDGTKYNEKFQGRVTISSDKSISTAYMELSSLRSEDTAMYYCARGTYYYGTRVFDYWGQGTLVTVSS VL: DIVMTQSPATLSLSPGERATLSCRSSKSLQNVNGNTYLYWFQQKPGQSPQLLIYRMSNLNSGVPDRFSGSGSGTEFTLTISSLEPEDFAVYYCMQHLEYPITFGAGTKLEIKR	4.8	5.28	3.88	2.99	4.1	2.13	11.5
CD19 BRIDGE variant B9 (Fab, V domains shown) VH: EVQLVESGGGLVKPGGSLKLSCAASGYTFTSYVMHWVRQAPGKGLEWIGYINPYNDGTKYNEKFQGRVTISSDKSISTAYMELSSLRSEDTAMYYCARGTYYYGTRVFDYWGQGTLVTVSS VL: DIVMTQSPATLSLSPGERATLSCRSSKSLQNVNGNTYLYWFQQKPGQSPQLLIYRMSNLNSGVPDRFSGSGSGTEFTLTISSLEPEDFAVYYCMQHLEYPITFGAGTKLEIKR	5.3	4.82	3.9	3	4.1	2.32	10.5
CD19 BRIDGE variant B11 (Fab) heavy: EVQLVESGGGLVKPGGSLKLSCAASGYTFTSYVMHWVRQAPGKGLEWIGYINPYNDGTKYNEKFQGRVTISSDKSISTAYMELSSLRSEDTAMYYCARGTYYYGTRVFDYWGQGTLVTVSSASTKGPSVFPLAPSSKSTSGGTAALGCLVKDYFPEPVTVSWNSGALTSGVHTFPAVLQSSGLYSLSSVVTVPSSSLGTQTYICNVNHKPSNTKVDKKVEPKSCHHHHHH light: GHNYTTRNILPGLNITSTFHKTSGSGKGSEPKSSDKTHTGSDIVMTQSPATLSLSPGERATLSCRSSKSLQNVNGNTYLYWFQQKPGQSPQLLIYRMSNLNSGVPDRFSGSGSGTEFTLTISSLEPEDFAVYYCMQHLEYPITFGAGTKLEIKRTVAAPSVFIFPPSDEQLKSGTASVVCLLNNFYPREAKVQWKVDNALQSGNSQESVTEQDSKDSTYSLSSTLTLSKADYEKHKVYACEVTHQGLSSPVTKSFNRGEC	4.5	6.43	4	3.08	4	2	14
CD19 BRIDGE variant B15 (Fab) heavy: EVQLVESGGGLVKPGGSLKLSCAASGYTFTSYVMHWVRQAPGKGLEWIGYINPYNDGTKYNEKFQGRVTISSDKSISTAYMELSSLRSEDTAMYYCARGTYYYGTRVFDYWGQGTLVTVSSASTKGPSVFPLAPSSKSTSGGTAALGCLVKDYFPEPVTVSWNSGALTSGVHTFPAVLQSSGLYSLSSVVTVPSSSLGTQTYICNVNHKPSNTKVDKKVEPKSCHHHHHH light: GHNYTTRNILPGLNITSGGGGSEPKSSDKTHTGGGGSDIVMTQSPATLSLSPGERATLSCRSSKSLQNVNGNTYLYWFQQKPGQSPQLLIYRMSNLNSGVPDRFSGSGSGTEFTLTISSLEPEDFAVYYCMQHLEYPITFGAGTKLEIKRTVAAPSVFIFPPSDEQLKSGTASVVCLLNNFYPREAKVQWKVDNALQSGNSQESVTEQDSKDSTYSLSSTLTLSKADYEKHKVYACEVTHQGLSSPVTKSFNRGEC	5.9	8.58	3.78	2.91	4.8	2.61	18.7
CD19 BRIDGE variant B16 (Fab) heavy: EVQLVESGGGLVKPGGSLKLSCAASGYTFTSYVMHWVRQAPGKGLEWIGYINPYNDGTKYNEKFQGRVTISSDKSISTAYMELSSLRSEDTAMYYCARGTYYYGTRVFDYWGQGTLVTVSSASTKGPSVFPLAPSSKSTSGGTAALGCLVKDYFPEPVTVSWNSGALTSGVHTFPAVLQSSGLYSLSSVVTVPSSSLGTQTYICNVNHKPSNTKVDKKVEPKSCHHHHHH light: GHNYTTRNILPGLNITSTFHKTSGSGKEPKSSDKTHTGGGGSDIVMTQSPATLSLSPGERATLSCRSSKSLQNVNGNTYLYWFQQKPGQSPQLLIYRMSNLNSGVPDRFSGSGSGTEFTLTISSLEPEDFAVYYCMQHLEYPITFGAGTKLEIKRTVAAPSVFIFPPSDEQLKSGTASVVCLLNNFYPREAKVQWKVDNALQSGNSQESVTEQDSKDSTYSLSSTLTLSKADYEKHKVYACEVTHQGLSSPVTKSFNRGEC	5.3	8.08	3.71	2.86	4.6	2.34	17.6
CD19 BRIDGE variant B12 (Fab) heavy: EVQLVESGGGLVKPGGSLKLSCAASGYTFTSYVMHWVRQAPGKGLEWIGYINPYNDGTKYNEKFQGRVTISSDKSISTAYMELSSLRSEDTAMYYCARGTYYYGTRVFDYWGQGTLVTVSSASTKGPSVFPLAPSSKSTSGGTAALGCLVKDYFPEPVTVSWNSGALTSGVHTFPAVLQSSGLYSLSSVVTVPSSSLGTQTYICNVNHKPSNTKVDKKVEPKSCHHHHHH light: GHNYTTRNILPGLNITSTFHKTSGSGKGGGGSEPKSSDKTHTGSDIVMTQSPATLSLSPGERATLSCRSSKSLQNVNGNTYLYWFQQKPGQSPQLLIYRMSNLNSGVPDRFSGSGSGTEFTLTISSLEPEDFAVYYCMQHLEYPITFGAGTKLEIKRTVAAPSVFIFPPSDEQLKSGTASVVCLLNNFYPREAKVQWKVDNALQSGNSQESVTEQDSKDSTYSLSSTLTLSKADYEKHKVYACEVTHQGLSSPVTKSFNRGEC	4.8	9.08	4.36	3.36	4.2	2.12	19.7
